{
  "source": "the RNAGym collection of RNA variant scans (doi:10.1093/molbev/msab373)",
  "parents": {"B1": {"name": "Azoarcus group I ribozyme (parent)", "chain": "GUGCCUUGCGCCGGGAAACCACGCAAGGGAUGGUGUCAAAUUCGGCGAAACCUAAGCGCCCGCCCGGGCGUAUGGCAACGCCGAGCCAAGCUUCGGCGCCUGCGCCGAUGAAGGUGUAGAGACUAGACGGCACCCACCUAAGGCAAACGCUAUGGUGAAGGCAUAGUCCAGGGAGUGGCGAAAGUCACACAAACCGG"}},
  "data": [
    {"variants_of": "B1", "assay": "reverse-splicing fitness (ratio to wild type); higher = more active; in vitro selection; Mg2+ level not given", "how_it_was_run": "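An in vitro group I ribozyme library with randomized positions was T7-transcribed and gel-purified. In triplicate, 10 pmol RNA in EPPS pH 7.5 was reacted with 50 pmoles of a 30-nt RNA substrate for 1 h at 37 °C across several added MgCl2 levels (1–48 mM), then stopped with EDTA. Products were reverse transcribed from a substrate-complementary primer, PCR-amplified and sequenced (HiSeq 4000). Fitness is a variant's read proportion after selection over that before, normalised to wild type.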", "values": [
      {"variant": "A111G A120U A145U C169G", "reverse-splicing fitness": 0.0912},
      {"variant": "A111G A120U A145U C169U", "reverse-splicing fitness": 0.122},
      {"variant": "A111G A145C C150G U176G", "reverse-splicing fitness": 0.0319},
      {"variant": "A111G A145C C150G U176A", "reverse-splicing fitness": 0.17},
      {"variant": "A111G A145C C150G U176C", "reverse-splicing fitness": 0.212},
      {"variant": "A111G A120U A145U C150U C169G U176C", "reverse-splicing fitness": 0.009},
      {"variant": "A111G A120U A145U C150U C169G U176A", "reverse-splicing fitness": 0.00842},
      {"variant": "A111G A120U A145U C150U C169G U176G", "reverse-splicing fitness": 0.00232},
      {"variant": "A111G A145C C150A C169A", "reverse-splicing fitness": 0.00859},
      {"variant": "A111G A145C C150A C169U", "reverse-splicing fitness": 0.0168},
      {"variant": "A111G A145C C150A C169G", "reverse-splicing fitness": 0.0111},
      {"variant": "A111G A145C C150U C169G", "reverse-splicing fitness": 0.0327},
      {"variant": "A111G A145C C150U C169A", "reverse-splicing fitness": 0.0167},
      {"variant": "A111G A145C C150U C169U", "reverse-splicing fitness": 0.0495},
      {"variant": "A111G A145C C150G C169U U176A", "reverse-splicing fitness": 0.00841},
      {"variant": "A111G A145C C150G C169U U176G", "reverse-splicing fitness": 0.00527},
      {"variant": "A111G A145C C150G C169U U176C", "reverse-splicing fitness": 0.0138},
      {"variant": "A111G A120U C150U C169G U176G", "reverse-splicing fitness": 0.00215},
      {"variant": "A111G A120U C150U C169G U176A", "reverse-splicing fitness": 0.0102},
      {"variant": "A111G A120U C150U C169G U176C", "reverse-splicing fitness": 0.0106},
      {"variant": "A111G A145C C150U U176A", "reverse-splicing fitness": 0.456},
      {"variant": "A111G A145C C150U U176C", "reverse-splicing fitness": 0.491},
      {"variant": "A111G A145C C150U U176G", "reverse-splicing fitness": 0.23},
      {"variant": "A111G A120U C150G C169U", "reverse-splicing fitness": 0.0103},
      {"variant": "A111G A120U C150G C169A", "reverse-splicing fitness": 0.00729},
      {"variant": "A111G A120U C150G C169G", "reverse-splicing fitness": 0.0111},
      {"variant": "A111G A145C C169G U176C", "reverse-splicing fitness": 0.0431},
      {"variant": "A111G A145C C169G U176G", "reverse-splicing fitness": 0.00491},
      {"variant": "A111G A145C C169G U176A", "reverse-splicing fitness": 0.0344},
      {"variant": "A111G A145C C150A", "reverse-splicing fitness": 0.229},
      {"variant": "A111G A145C C150G", "reverse-splicing fitness": 0.45},
      {"variant": "A111G A145C C150U", "reverse-splicing fitness": 0.688},
      {"variant": "A111G A120U C150U C169U U176A", "reverse-splicing fitness": 0.016},
      {"variant": "A111G A120U C150U C169U U176C", "reverse-splicing fitness": 0.02},
      {"variant": "A111G A120U C150U C169U U176G", "reverse-splicing fitness": 0.0032},
      {"variant": "A111G A120U A145U C150G C169U", "reverse-splicing fitness": 0.012},
      {"variant": "A111G A145C C169A U176A", "reverse-splicing fitness": 0.0126},
      {"variant": "A111G A145C C169A U176G", "reverse-splicing fitness": 0.00444},
      {"variant": "A111G A145C C169A U176C", "reverse-splicing fitness": 0.0139},
      {"variant": "A111G A120U A145U C169G U176A", "reverse-splicing fitness": 0.00865},
      {"variant": "A111G A120U A145U C169G U176C", "reverse-splicing fitness": 0.0178},
      {"variant": "A111G A120U A145U C169G U176G", "reverse-splicing fitness": 0.00196}
    ]}
  ]
}
